# Reference: patent US20050176123A1 (MORINAGA MILK INDUSTRY, published 2005)
# B1: bovine lactoferrin (manufactured by Morinaga Milk Industry Co., Ltd.) (other)
# chain: APRKNVRWCTISQPEWFKCRRWQWRMKKLGAPSITCVRRAFALECIRAIAEKKADAVTLDGGMVFEAGRDPYKLRPVAAEIYGTKESPQTHYYAVAVVKKGSNFQLDQLQGRKSCHTGLGRSAGWIIPMGILRPYLSWTESLEPLQGAVAKFFSASCVPCIDRQAYPNLCQLCKGEGENQCACSSREPYFGYSGAFKCLQDGAGDVAFVKETTVFENLPEKADRDQYELLCLNNSRAPVDAFKECHLAQVPSHAVVARSVDGKEDLIWKLLSKAQEKFGKNKSRSFQLFGSPPGQRDLLFKDSALGFLRIPSKVDSALYLGSRYLTTLKNLRETAEEVKARYTRVVWCAVGPEEQKKCQQWSQQSGQNVTCATASTTDDCIVLVLKGEADALNLDGGYIYTAGKCGLVPVLAENRKSSKHSSLDCVLRPTEGYLAVAVVKKANEGLTWNSLKDKKSCHTAVDRTAGWNIPMGLIVNQTGSCAFDEFFSQSCAPGADPKSRLCALCAGDDQGLDKCVPNSKEKYYGYTGAFRCLAEDVGDVAFVKNDTVWENTNGESTADWAKNLNREDFRLLCLDGTRKPVTEAQSCHLAVAPNHAVVSRSDRAAHVKQVLLHQQALFGKNGKNCPDKFCLFKSETKNLLFNDNTECLAKLGGRPTYEEYLGTEYVTAIANLKKCSTSPLLEACAFLTR
# B2: bovine transferrin (manufactured by Nihon Pharmaceutical Co., Ltd.) (other)
# chain: DPERTVRWCTISTHEANKCASFRENVLRILESGPFVSCVKKTSHMDCIKAISNNEADAVTLDGGLVYEAGLKPNNLKPVVAEFHGTKDNPQTHYYAVAVVKKDTDFKLNELRGKKSCHTGLGRSAGWNIPMAKLYKELPDPQESIQRAAANFFSASCVPCADQSSFPKLCQLCAGKGTDKCACSNHEPYFGYSGAFKCLMEGAGDVAFVKHSTVFDNLPNPEDRKNYELLCGDNTRKSVDDYQECYLAMVPSHAVVARTVGGKEDVIWELLNHAQEHFGKDKPDNFQLFQSPHGKDLLFKDSADGFLKIPSKMDFELYLGYEYVTALQNLRESKPPDSSKDECMVKWCAIGHQERTKCDRWSGFSGGAIECETAENTEECIAKIMKGEADAMSLDGGYLYIAGKCGLVPVLAENYKTEGESCKNTPEKGYLAVAVVKTSDANINWNNLKDKKSCHTAVDRTAGWNIPMGLLYSKINNCKFDEFFSAGCAPGSPRNSSLCALCIGSEKGTGKECVPNSNERYYGYTGAFRCLVEKGDVAFVKDQTVIQNTDGNNNEAWAKNLKKENFEVLCKDGTRKPVTDAENCHLARGPNHAVVSRKDKATCVEKILNKQQDDFGKSVTDCTSNFCLFQSNSKDLLFRDDTKCLASIAKKTYDSYLGDDYVRAMTNLRQCSTSKLLEACTFHKP
# How the values were obtained:
# Experiment in all cases: cell-based or functional assay
# papain [1] = molecular target: T1, papain (UniProt P00784 134-345)
# T1 sequence (looked up): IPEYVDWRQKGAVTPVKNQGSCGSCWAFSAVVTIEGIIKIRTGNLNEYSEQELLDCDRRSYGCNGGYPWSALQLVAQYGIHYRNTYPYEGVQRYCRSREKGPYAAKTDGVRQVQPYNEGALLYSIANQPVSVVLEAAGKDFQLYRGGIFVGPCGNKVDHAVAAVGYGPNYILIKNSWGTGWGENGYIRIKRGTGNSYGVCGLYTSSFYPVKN
# cathepsin L [2] = molecular target: cathepsin L
# cathepsin B [3] = molecular target: cathepsin B
# cathepsin S = molecular target: cathepsin S
# papain [4] = molecular target: T1, papain; remark: listed apart in the source
# cathepsin L [5] = molecular target: cathepsin L; remark: listed apart in the source
# cathepsin B [6] = molecular target: cathepsin B; remark: listed apart in the source
binder,measurement,setting,value
B1,inhibition rate (%) at 10^-4M inhibitor,papain [1],100%
same,inhibition rate (%) at 10^-5M inhibitor,papain [1],100%
same,inhibition rate (%) at 10^-6M inhibitor,papain [1],100%
same,inhibition rate (%) at 10^-7M inhibitor,papain [1],40%
same,inhibition rate (%) at 10^-8M inhibitor,papain [1],0%
same,inhibition rate (%) at 10^-4M inhibitor,cathepsin L [2],100%
same,inhibition rate (%) at 10^-5M inhibitor,cathepsin L [2],100%
same,inhibition rate (%) at 10^-6M inhibitor,cathepsin L [2],100%
same,inhibition rate (%) at 10^-7M inhibitor,cathepsin L [2],20%
same,inhibition rate (%) at 10^-8M inhibitor,cathepsin L [2],0%
same,inhibition rate (%) at 10^-4M inhibitor,cathepsin B [3],100%
same,inhibition rate (%) at 10^-5M inhibitor,cathepsin B [3],70%
same,inhibition rate (%) at 10^-6M inhibitor,cathepsin B [3],10%
same,inhibition rate (%) at 10^-7M inhibitor,cathepsin B [3],0%
same,inhibition rate (%) at 10^-8M inhibitor,cathepsin B [3],0%
same,inhibition rate (%) at 10^-4M inhibitor,cathepsin S,100%
same,inhibition rate (%) at 10^-5M inhibitor,cathepsin S,80%
same,inhibition rate (%) at 10^-6M inhibitor,cathepsin S,15%
same,inhibition rate (%) at 10^-7M inhibitor,cathepsin S,0%
same,inhibition rate (%) at 10^-8M inhibitor,cathepsin S,0%
YEKYLGPQYVAGITNLK [human lactoferrin peptide Y679-K695],inhibition of cysteine protease activity at 10^-4 M inhibitor,papain [4],> 50%
same,inhibition of cysteine protease activity at 10^-4 M inhibitor,cathepsin L [5],> 50%
B2,inhibition of cysteine protease activity at 10^-4 M inhibitor,papain [4],40%
same,inhibition of cysteine protease activity at 10^-4 M inhibitor,cathepsin L [5],> 30%
same,inhibition of cysteine protease activity at 10^-4 M inhibitor,cathepsin B [6],> 30%
